The target in test [1] is rat amylin receptor (rat calcitonin receptor with rat RAMP 3) (rat) (UniProt P32214). Description: SPA competition vs 125I-rat amylin, membranes with rat CTR + rat RAMP3 (Assay VI).
Test [2] addresses rat calcitonin receptor (rat) (UniProt P32214). Description: SPA competition vs 125I-calcitonin, membranes with rat CTR (Assay VIII).
Test [3] addresses T1, human amylin receptor (human calcitonin receptor + human RAMP3) (human) (UniProt P30988).
T1 sequence (looked up) 1: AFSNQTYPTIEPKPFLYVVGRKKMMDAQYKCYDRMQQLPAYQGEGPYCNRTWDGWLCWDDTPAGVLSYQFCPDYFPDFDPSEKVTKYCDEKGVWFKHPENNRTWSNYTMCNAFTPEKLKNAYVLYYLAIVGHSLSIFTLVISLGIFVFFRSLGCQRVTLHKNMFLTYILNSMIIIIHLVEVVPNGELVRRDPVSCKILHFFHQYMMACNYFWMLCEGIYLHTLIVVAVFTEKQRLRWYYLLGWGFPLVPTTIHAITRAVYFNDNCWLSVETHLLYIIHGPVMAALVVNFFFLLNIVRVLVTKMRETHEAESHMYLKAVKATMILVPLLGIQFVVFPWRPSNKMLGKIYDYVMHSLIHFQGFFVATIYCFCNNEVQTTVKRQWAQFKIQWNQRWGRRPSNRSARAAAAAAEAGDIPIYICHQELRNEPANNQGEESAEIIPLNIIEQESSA
T1 sequence (looked up) 2: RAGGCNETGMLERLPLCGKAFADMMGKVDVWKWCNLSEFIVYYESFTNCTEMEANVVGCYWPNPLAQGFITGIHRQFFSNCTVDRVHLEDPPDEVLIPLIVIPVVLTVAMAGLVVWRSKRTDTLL
Nature of the test: whole-cell competition vs 125I-rat amylin (Assay Va).

Numbered stars: 1 amine (or outer) side, 2 acyl side, 3 side chain; on linkers, the order of the positions; unused ones are H or OH. * marks the point of attachment. C20 diacid = O=C(O)CCCCCCCCCCCCCCCCCCC(=O)*; γGlu = O=C(O)[C@H](CCC(=O)[*:2])N[*:1]

B1: [N-terminal(C20 diacid-gGlu), des1, 23Y, 30S, 31G]mimylin (peptide)
peptide: {C20 diacid-γGlu}-ASELSTAALGRLSAELHELATYPRTETGSGSP-NH2
SMILES: CC(C)C[C@H](NC(=O)[C@H](C)NC(=O)[C@H](C)NC(=O)[C@@H](NC(=O)[C@H](CO)NC(=O)[C@H](CC(C)C)NC(=O)[C@H](CCC(=O)O)NC(=O)[C@H](CO)NC(=O)[C@H](C)NC(=O)CC[C@H](NC(=O)CCCCCCCCCCCCCCCCCCC(=O)O)C(=O)O)[C@@H](C)O)C(=O)NCC(=O)N[C@@H](CCCNC(=N)N)C(=O)N[C@@H](CC(C)C)C(=O)N[C@@H](CO)C(=O)N[C@@H](C)C(=O)N[C@@H](CCC(=O)O)C(=O)N[C@@H](CC(C)C)C(=O)N[C@@H](Cc1c[nH]cn1)C(=O)N[C@@H](CCC(=O)O)C(=O)N[C@@H](CC(C)C)C(=O)N[C@@H](C)C(=O)N[C@H](C(=O)N[C@@H](Cc1ccc(O)cc1)C(=O)N1CCC[C@H]1C(=O)N[C@@H](CCCNC(=N)N)C(=O)N[C@H](C(=O)N[C@@H](CCC(=O)O)C(=O)N[C@H](C(=O)NCC(=O)N[C@@H](CO)C(=O)NCC(=O)N[C@@H](CO)C(=O)N1CCC[C@H]1C(N)=O)[C@@H](C)O)[C@@H](C)O)[C@@H](C)O
The IC50 is the concentration that inhibits the measured activity by half. With B1, the IC50 worked out at 3.99 nM in test [1], 0.202 nM in test [2] and 2.61 nM in test [3].

B2: [N-terminal(C20 diacid-gGlu), des1, 4G, 9T, 15Q, 21Q, 23Y, 25P, 30S, 31G, 32T, 33Y]mimylin (peptide)
peptide: {C20 diacid-γGlu}-ASGLSTATLGRLSQELHELQTYPPTETGSGTY-NH2
SMILES: CC(C)C[C@H](NC(=O)CNC(=O)[C@H](CO)NC(=O)[C@H](C)NC(=O)CC[C@H](NC(=O)CCCCCCCCCCCCCCCCCCC(=O)O)C(=O)O)C(=O)N[C@@H](CO)C(=O)N[C@H](C(=O)N[C@@H](C)C(=O)N[C@H](C(=O)N[C@@H](CC(C)C)C(=O)NCC(=O)N[C@@H](CCCNC(=N)N)C(=O)N[C@@H](CC(C)C)C(=O)N[C@@H](CO)C(=O)N[C@@H](CCC(N)=O)C(=O)N[C@@H](CCC(=O)O)C(=O)N[C@@H](CC(C)C)C(=O)N[C@@H](Cc1c[nH]cn1)C(=O)N[C@@H](CCC(=O)O)C(=O)N[C@@H](CC(C)C)C(=O)N[C@@H](CCC(N)=O)C(=O)N[C@H](C(=O)N[C@@H](Cc1ccc(O)cc1)C(=O)N1CCC[C@H]1C(=O)N1CCC[C@H]1C(=O)N[C@H](C(=O)N[C@@H](CCC(=O)O)C(=O)N[C@H](C(=O)NCC(=O)N[C@@H](CO)C(=O)NCC(=O)N[C@H](C(=O)N[C@@H](Cc1ccc(O)cc1)C(N)=O)[C@@H](C)O)[C@@H](C)O)[C@@H](C)O)[C@@H](C)O)[C@@H](C)O)[C@@H](C)O
Turning to B2, the 50% inhibitory concentration (IC50) in test [1] came out at 0.098 nM; in test [2] it was 0.028 nM; in test [3], 0.116 nM.

B3: [N-terminal(C20 diacid-gGlu), 1A, 23Y, 30S, 31G]mimylin (peptide)
peptide: {C20 diacid-γGlu}-AASELSTAALGRLSAELHELATYPRTETGSGSP-NH2
SMILES: CC(C)C[C@H](NC(=O)[C@H](C)NC(=O)[C@H](C)NC(=O)[C@@H](NC(=O)[C@H](CO)NC(=O)[C@H](CC(C)C)NC(=O)[C@H](CCC(=O)O)NC(=O)[C@H](CO)NC(=O)[C@H](C)NC(=O)[C@H](C)NC(=O)CC[C@H](NC(=O)CCCCCCCCCCCCCCCCCCC(=O)O)C(=O)O)[C@@H](C)O)C(=O)NCC(=O)N[C@@H](CCCNC(=N)N)C(=O)N[C@@H](CC(C)C)C(=O)N[C@@H](CO)C(=O)N[C@@H](C)C(=O)N[C@@H](CCC(=O)O)C(=O)N[C@@H](CC(C)C)C(=O)N[C@@H](Cc1c[nH]cn1)C(=O)N[C@@H](CCC(=O)O)C(=O)N[C@@H](CC(C)C)C(=O)N[C@@H](C)C(=O)N[C@H](C(=O)N[C@@H](Cc1ccc(O)cc1)C(=O)N1CCC[C@H]1C(=O)N[C@@H](CCCNC(=N)N)C(=O)N[C@H](C(=O)N[C@@H](CCC(=O)O)C(=O)N[C@H](C(=O)NCC(=O)N[C@@H](CO)C(=O)NCC(=O)N[C@@H](CO)C(=O)N1CCC[C@H]1C(N)=O)[C@@H](C)O)[C@@H](C)O)[C@@H](C)O
Take B3: the IC50 in test [1] came out at 0.025 nM; in test [2], 0.044 nM; in test [3], 1.23 nM.

B4: [N-terminal(C20 diacid-gGlu), des1, 4Q, 9V, 15Q, 16R, 19R, 21Q, 23Y, 27Q, 30S, 31Q, 32T, 33Y]mimylin (peptide)
peptide: {C20 diacid-γGlu}-ASQLSTAVLGRLSQRLHRLQTYPRTQTGSQTY-NH2
SMILES: CC(C)C[C@H](NC(=O)[C@H](CCCNC(=N)N)NC(=O)CNC(=O)[C@H](CC(C)C)NC(=O)[C@@H](NC(=O)[C@H](C)NC(=O)[C@@H](NC(=O)[C@H](CO)NC(=O)[C@H](CC(C)C)NC(=O)[C@H](CCC(N)=O)NC(=O)[C@H](CO)NC(=O)[C@H](C)NC(=O)CC[C@H](NC(=O)CCCCCCCCCCCCCCCCCCC(=O)O)C(=O)O)[C@@H](C)O)C(C)C)C(=O)N[C@@H](CO)C(=O)N[C@@H](CCC(N)=O)C(=O)N[C@@H](CCCNC(=N)N)C(=O)N[C@@H](CC(C)C)C(=O)N[C@@H](Cc1c[nH]cn1)C(=O)N[C@@H](CCCNC(=N)N)C(=O)N[C@@H](CC(C)C)C(=O)N[C@@H](CCC(N)=O)C(=O)N[C@H](C(=O)N[C@@H](Cc1ccc(O)cc1)C(=O)N1CCC[C@H]1C(=O)N[C@@H](CCCNC(=N)N)C(=O)N[C@H](C(=O)N[C@@H](CCC(N)=O)C(=O)N[C@H](C(=O)NCC(=O)N[C@@H](CO)C(=O)N[C@@H](CCC(N)=O)C(=O)N[C@H](C(=O)N[C@@H](Cc1ccc(O)cc1)C(N)=O)[C@@H](C)O)[C@@H](C)O)[C@@H](C)O)[C@@H](C)O
On to B4, for which the IC50 in test [1] is 1.16 nM; in test [2], 0.069 nM; in test [3], 3.7 nM.

B5: [N-terminal(C20 diacid-gGlu), des1, 30S, 31G, 33H]mimylin (peptide)
peptide: {C20 diacid-γGlu}-ASELSTAALGRLSAELHELATLPRTETGSGSH-NH2
SMILES: CC(C)C[C@H](NC(=O)[C@H](C)NC(=O)[C@H](C)NC(=O)[C@@H](NC(=O)[C@H](CO)NC(=O)[C@H](CC(C)C)NC(=O)[C@H](CCC(=O)O)NC(=O)[C@H](CO)NC(=O)[C@H](C)NC(=O)CC[C@H](NC(=O)CCCCCCCCCCCCCCCCCCC(=O)O)C(=O)O)[C@@H](C)O)C(=O)NCC(=O)N[C@@H](CCCNC(=N)N)C(=O)N[C@@H](CC(C)C)C(=O)N[C@@H](CO)C(=O)N[C@@H](C)C(=O)N[C@@H](CCC(=O)O)C(=O)N[C@@H](CC(C)C)C(=O)N[C@@H](Cc1c[nH]cn1)C(=O)N[C@@H](CCC(=O)O)C(=O)N[C@@H](CC(C)C)C(=O)N[C@@H](C)C(=O)N[C@H](C(=O)N[C@@H](CC(C)C)C(=O)N1CCC[C@H]1C(=O)N[C@@H](CCCNC(=N)N)C(=O)N[C@H](C(=O)N[C@@H](CCC(=O)O)C(=O)N[C@H](C(=O)NCC(=O)N[C@@H](CO)C(=O)NCC(=O)N[C@@H](CO)C(=O)N[C@@H](Cc1c[nH]cn1)C(N)=O)[C@@H](C)O)[C@@H](C)O)[C@@H](C)O
For the molecule B5, the IC50 came to 0.046 nM in test [1], 0.02 nM in test [2] and 1.07 nM in test [3].

{C20 diacid-γGlu}-ASELSTAALGHLSAELHELATLPRTETGSGSP-NH2 [[N-terminal(C20 diacid-gGlu), des1, 12H, 30S, 31G]mimylin]: the 50% inhibitory concentration (IC50) came to 1.53 nM in test [1], 0.085 nM in test [2] and 0.697 nM in test [3].

Values taken from patent US20160272683A1 (Novo Nordisk, published 2016).
